In patent publication US20020052473:

T1: full-length pro-IL-1H4
T1 chain: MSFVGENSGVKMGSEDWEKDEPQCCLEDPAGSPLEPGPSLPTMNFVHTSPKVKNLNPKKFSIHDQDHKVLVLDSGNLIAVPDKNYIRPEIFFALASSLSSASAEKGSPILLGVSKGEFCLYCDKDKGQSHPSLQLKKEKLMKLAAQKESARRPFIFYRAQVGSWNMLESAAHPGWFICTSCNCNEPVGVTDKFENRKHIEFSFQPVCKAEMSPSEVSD

B1: caspase 4 (protein)
chain: QISPNKKAHPNMEAGPPESGESTDALKLCPHEEFLRLCKERAEEIYPIKERNNRTRLALIICNTEFDHLPPRNGADFDITGMKELLEGLDYSVDVEENLTARDMESALRAFATRPEHKSSDSTFLVLMSHGILEGICGTVHDEKKPDVLLYDTIFQIFNNRNCLSLKDKPKVIIVQACRGANRGELWVRDSPASLEVASSQSSENLEEDAVYKTHVEKDFIAFCSSTPHNVSWRDSTMGSIFITQLITCFQKYSWCCHLEEVFRKVQQSFETPRAKAQMPTIERLSMTRYFYLFPGN
B2: caspase 1 (protein)
chain: NPAMPTSSGSEGNVKLCSLEEAQRIWKQKSAEIYPIMDKSSRTRLALIICNEEFDSIPRRTGAEVDITGMTMLLQNLGYSVDVKKNLTASDMTTELEAFAHRPEHKTSDSTFLVFMSHGIREGICGKKHSEQVPDILQLNAIFNMLNTKNCPSLKDKPKVIIIQACRGDSPGVVWFKDSVGVSGNLSLPTTEEFEDDAIKKAHIEKDFIAFCSSTPDNVSWRHPTMGSVFIGRLIEHMQEYACSCDVEEIFRKVRFSFEQPDGRAQMPTTERVTLTRCFYLFPGH

Biological target: T1, full-length pro-IL-1H4

Protein	cleavage of pro-IL-1H4	cleavage of pro-IL-1H4 to mature IL-1H4 (SDS polyacrylamide gel)
B1	caspase 4 also cleaved pro-IL-1H4, although not as efficiently as caspase 1	–
B2	–	Caspase 1 at a ratio of 1:50 to 1:5 (caspase:IL-1H4, weight/weight) completely cleaved pro-IL-1H4 to release the mature IL-1H4
